Measured values published in publication PMC3387016, “Proteomic Identification of Calumenin as a G551D - CFTR Associated Protein” (PLoS ONE, 2012).

Target: T1, purified full length CFTR (UniProt P13569 1-1480)
T1 construct: cystic fibrosis transmembrane conductance regulator, full length, called Wt-CFTR in the SPR methods; also called pure CFTR; Wt-CFTR; source: purified, gift from Pr Robert Ford (University of Manchester, UK)
Experiment: SPR; Biacore 3000, calumenin amine-coupled to a CM5 chip (about 2000 RU), CFTR injected at 0.15 to 1.5 nM, 5 µl/min, HBS-EP pH 7.4, 25°C, triplicate
Details: both partners purified

T1 sequence (P13569 whole entry): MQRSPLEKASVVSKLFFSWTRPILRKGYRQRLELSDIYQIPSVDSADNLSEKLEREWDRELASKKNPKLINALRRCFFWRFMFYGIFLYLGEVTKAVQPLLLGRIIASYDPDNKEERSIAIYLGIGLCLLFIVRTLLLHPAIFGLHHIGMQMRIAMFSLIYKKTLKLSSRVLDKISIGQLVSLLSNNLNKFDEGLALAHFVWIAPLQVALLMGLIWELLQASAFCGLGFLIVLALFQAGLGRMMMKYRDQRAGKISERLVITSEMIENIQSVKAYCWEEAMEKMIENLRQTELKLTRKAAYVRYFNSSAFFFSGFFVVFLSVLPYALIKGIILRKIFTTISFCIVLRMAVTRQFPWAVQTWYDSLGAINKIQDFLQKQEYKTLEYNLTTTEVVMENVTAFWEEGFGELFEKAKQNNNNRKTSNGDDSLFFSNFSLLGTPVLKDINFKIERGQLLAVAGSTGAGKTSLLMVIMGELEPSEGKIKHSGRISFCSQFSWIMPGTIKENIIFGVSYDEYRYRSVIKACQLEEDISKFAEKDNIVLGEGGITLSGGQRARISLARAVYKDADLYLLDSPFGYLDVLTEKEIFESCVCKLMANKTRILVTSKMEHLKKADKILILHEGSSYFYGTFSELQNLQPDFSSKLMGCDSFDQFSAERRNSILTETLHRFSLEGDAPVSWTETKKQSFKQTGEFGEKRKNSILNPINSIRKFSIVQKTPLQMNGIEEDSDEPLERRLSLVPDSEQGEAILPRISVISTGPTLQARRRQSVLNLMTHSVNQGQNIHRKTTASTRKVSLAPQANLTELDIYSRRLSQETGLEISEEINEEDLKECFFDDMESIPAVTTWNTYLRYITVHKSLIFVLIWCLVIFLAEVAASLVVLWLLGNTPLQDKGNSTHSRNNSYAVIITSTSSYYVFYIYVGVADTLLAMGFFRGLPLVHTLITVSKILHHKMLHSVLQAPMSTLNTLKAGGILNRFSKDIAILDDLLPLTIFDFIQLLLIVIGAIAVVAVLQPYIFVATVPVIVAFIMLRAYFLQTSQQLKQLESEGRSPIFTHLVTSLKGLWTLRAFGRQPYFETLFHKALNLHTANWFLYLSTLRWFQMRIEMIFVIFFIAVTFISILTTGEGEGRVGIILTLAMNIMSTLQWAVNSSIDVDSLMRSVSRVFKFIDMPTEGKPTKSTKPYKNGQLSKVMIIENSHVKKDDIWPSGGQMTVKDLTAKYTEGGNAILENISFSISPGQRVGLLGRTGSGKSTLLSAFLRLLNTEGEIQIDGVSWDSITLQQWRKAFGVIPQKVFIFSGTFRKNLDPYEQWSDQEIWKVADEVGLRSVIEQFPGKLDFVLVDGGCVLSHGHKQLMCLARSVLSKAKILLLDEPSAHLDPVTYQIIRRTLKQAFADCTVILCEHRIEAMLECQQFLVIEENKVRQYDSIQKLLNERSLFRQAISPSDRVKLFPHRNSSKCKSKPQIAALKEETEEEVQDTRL

B1: Pure recombinant human calumenin (natural protein, UniProt O43852 20-315, looked up)
chain: KPTEKKDRVHHEPQLSDKVHNDAQSFDYDHDAFLGAEEAKTFDQLTPEESKERLGKIVSKIDGDKDGFVTVDELKDWIKFAQKRWIYEDVERQWKGHDLNEDGLVSWEEYKNATYGYVLDDPDPDDGFNYKQMMVRDERRFKMADKDGDLIATKEEFTAFLHPEEYDYMKDIVVQETMEDIDKNADGFIDLEEYIGDMYSHDGNTDEPEWVKTEREQFVEFRDKNRDGKMDKEETKDWILPSDYDHAEAEARHLVYESDQNKDGKLTKEEIVDKYDLFVGSQATDFGEALVRHDEF
notes: calumenin, human, recombinant; No catalogue number, host, limits or tag are printed; also called pure calumenin; source: bought: Prospec (Israel)
Kd: 3.8 pM
